According to PMC2684960:

Biological target: T1, phospho-IRF3 (S386), endogenous (human (endogenous in SALE)), Q14653
T1 chain: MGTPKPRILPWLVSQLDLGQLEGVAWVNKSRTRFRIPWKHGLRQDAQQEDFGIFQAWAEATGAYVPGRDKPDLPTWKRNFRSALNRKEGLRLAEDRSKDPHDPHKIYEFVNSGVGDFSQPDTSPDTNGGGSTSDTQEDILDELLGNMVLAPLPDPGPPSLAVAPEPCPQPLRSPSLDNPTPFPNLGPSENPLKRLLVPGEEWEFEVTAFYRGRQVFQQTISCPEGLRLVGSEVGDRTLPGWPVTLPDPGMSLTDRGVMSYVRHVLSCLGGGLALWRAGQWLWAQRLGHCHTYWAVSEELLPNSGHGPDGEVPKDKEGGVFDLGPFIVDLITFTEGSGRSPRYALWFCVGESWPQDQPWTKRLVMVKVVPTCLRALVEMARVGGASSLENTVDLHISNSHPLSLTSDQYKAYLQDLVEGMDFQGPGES
Experiment: native gel or EMSA
Conditions: remark: other sources report otherwise

B1: phospho-IRF3 (S386), endogenous, Q14653 1-427 (natural protein)
chain: MGTPKPRILPWLVSQLDLGQLEGVAWVNKSRTRFRIPWKHGLRQDAQQEDFGIFQAWAEATGAYVPGRDKPDLPTWKRNFRSALNRKEGLRLAEDRSKDPHDPHKIYEFVNSGVGDFSQPDTSPDTNGGGSTSDTQEDILDELLGNMVLAPLPDPGPPSLAVAPEPCPQPLRSPSLDNPTPFPNLGPSENPLKRLLVPGEEWEFEVTAFYRGRQVFQQTISCPEGLRLVGSEVGDRTLPGWPVTLPDPGMSLTDRGVMSYVRHVLSCLGGGLALWRAGQWLWAQRLGHCHTYWAVSEELLPNSGHGPDGEVPKDKEGGVFDLGPFIVDLITFTEGSGRSPRYALWFCVGESWPQDQPWTKRLVMVKVVPTCLRALVEMARVGGASSLENTVDLHISNSHPLSLTSDQYKAYLQDLVEGMDFQGPGES
modifications: here or on the partner: phosphoserine at 386; phosphoserine at 386
Question: Which stoichiometry N does the source give for B1 here?
Answer: The stoichiometry N was 2.
